Molecular target: Neorhodopsin (NeoR) rhodopsin module from Rhizoclosmatium globosum, residues 1-279 (Rhizoclosmatium globosum)
Assay: cryo-EM structure; single-particle cryo-EM of purified NeoR in LMNG/CHS, 50 mM Hepes pH 7.4, 100 mM NaCl, after two SEC steps (monodisperse, single oligomeric state); 4.80 Å map refined under C1; two AlphaFold2 monomers fitted into the map

## Neorhodopsin (NeoR) rhodopsin module from Rhizoclosmatium globosum, residues 1-279 (domain or fragment)
  stoichiometry N: 2

Source: paper PMC12046560
